Test results reported in patent US20190328889A1.

Experiments:
[1] = biological target: Fc receptors on U937 cells (human; IFNγ-activated or non-activated) (human); experiment: flow cytometry competition on IFNγ-activated U937 cells; competitor 1 µM BDB; Nip228 at 0.001-5 µM
[2] = biological target: Fc receptors on U937 cells (human; IFNγ-activated or non-activated) (human); experiment: flow cytometry competition on IFNγ-activated U937 cells; competitor 1 µM cp33; Nip228 at 0.001-5 µM

IgG1 concentration above which the peptide is displaced [1]: 10 nM | IgG1 concentration above which the peptide is displaced [2]: 10 nM
Substance: control monoclonal human IgG1 (Nip228, MedImmune Ltd), unlabelled (antibody)
